Legend:
[1] = biological target: Recombinant SARS-CoV-2 spike (S) protein (SARS-CoV-2) (UniProt P0DTC2)
[2] = biological target: Recombinant SARS-CoV-2 spike (S) protein (SARS-CoV-2) (UniProt P0DTC2); remark: listed apart in the source

Substance	cell binding assay: binding of SARS-CoV-2 S lentiviral pseudoparticles pre-treated with FH (20 ug/ml) to A549-hACE2+TMPRSS2 cells, decrease against untreated pseudoparticles [1]	luciferase reporter activity: entry of SARS-CoV-2 S lentiviral pseudoparticles pre-treated with FH (20 ug/ml) into A549-hACE2+TMPRSS2 cells, reduction against untreated pseudoparticles [2]	cell binding assay: binding of SARS-CoV-2 S lentiviral pseudoparticles pre-treated with FP (20 ug/ml) to A549-hACE2+TMPRSS2 cells, increase against untreated pseudoparticles [1]	luciferase reporter activity: entry of SARS-CoV-2 S lentiviral pseudoparticles pre-treated with FP (20 ug/ml) into A549-hACE2+TMPRSS2 cells, increase against untreated pseudoparticles [2]
Human complement factor H (from UniProt P08603 19-1231) (natural protein)	35%	25%		
Human native properdin (from UniProt P27918 28-469) (natural protein)			30%	80%

Source: paper PMC12395051
